# Experimental data taken from patent US20180271973A1.
# Molecular target: CH505 transmitted/founder (T/F) Env gp120 (HIV-1)
# Assay: surface plasmon resonance
substance,measurement,value
CH103 UCA (unmutated common ancestor of the CH103 CD4 binding site bnAb lineage) (antibody),Kd,200 nM
